Data set [1] concerns Sso10a1 (Sulfolobus solfataricus). As to the kind of experiment: EMSA. The settings on record: TPM buffer conditions; data not shown; EMSA: TPM buffer II (composition not in the material), 69 nM DNA, 10 min, ~23 °C, 1% agarose 0.5x TBE; TPM: 100 mM or 20 mM NaCl. In general terms: In EMSA bound probe runs differently from free probe, usually more slowly.
Data set [2] deals with Sso10a2 (Sulfolobus solfataricus). Nature of the data set: EMSA. The conditions noted are these: TPM buffer conditions; data not shown; EMSA: TPM buffer II (composition not in the material), 69 nM DNA, 10 min, ~23 °C, 1% agarose 0.5x TBE; TPM: 100 mM or 20 mM NaCl.

The Kd is the constant that tells how readily two partners part at equilibrium. High values mean a looser complex, low ones a tighter complex. 685 bp DNA substrate (TPM/EMSA): the Kd in data set [1] and in data set [2] was 1 nM throughout.
